T1: GFP-Aub (functional and methylated, from fly ovaries) (Drosophila, UniProt O76922 1-866, methylated (sDMAs), positions not given)
T1 construct: Aubergine (Aub), Piwi family protein, Drosophila; full-length; also called full-length Aub; source: purified from fly ovaries with anti-GFP beads
T1 sequence (looked up): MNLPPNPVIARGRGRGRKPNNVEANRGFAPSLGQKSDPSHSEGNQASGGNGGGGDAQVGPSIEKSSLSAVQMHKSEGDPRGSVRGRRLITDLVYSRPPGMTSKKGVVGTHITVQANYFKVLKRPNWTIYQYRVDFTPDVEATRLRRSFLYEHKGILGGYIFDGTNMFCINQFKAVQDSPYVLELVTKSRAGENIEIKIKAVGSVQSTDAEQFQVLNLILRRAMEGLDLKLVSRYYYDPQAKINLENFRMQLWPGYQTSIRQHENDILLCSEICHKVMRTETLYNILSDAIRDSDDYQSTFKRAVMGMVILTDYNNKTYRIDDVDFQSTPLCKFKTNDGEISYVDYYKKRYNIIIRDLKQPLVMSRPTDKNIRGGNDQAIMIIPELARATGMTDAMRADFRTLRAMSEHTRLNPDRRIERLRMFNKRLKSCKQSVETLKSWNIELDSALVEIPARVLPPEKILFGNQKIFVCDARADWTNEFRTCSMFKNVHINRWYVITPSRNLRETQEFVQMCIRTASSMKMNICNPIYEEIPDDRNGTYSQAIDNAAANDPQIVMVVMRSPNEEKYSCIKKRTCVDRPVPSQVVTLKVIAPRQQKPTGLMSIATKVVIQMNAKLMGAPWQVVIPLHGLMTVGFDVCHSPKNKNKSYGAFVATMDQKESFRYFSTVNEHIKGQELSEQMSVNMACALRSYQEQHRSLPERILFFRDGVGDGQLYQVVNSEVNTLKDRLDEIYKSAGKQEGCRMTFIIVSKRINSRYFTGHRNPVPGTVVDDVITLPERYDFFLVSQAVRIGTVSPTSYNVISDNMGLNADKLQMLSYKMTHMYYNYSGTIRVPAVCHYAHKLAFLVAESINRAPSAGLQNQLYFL

B1: Tud domain 6 (amino acids 1299-1484 of Tudor) (domain or fragment, Drosophila, UniProt P25823 1299-1484, looked up)
chain: SFICPYPVVLSSFQALVVYTAKPYRVYVQPQAIVPSMQTLLDNMYEHYKAKGDSLKKFDVGQICAVRSSDGNWYRARISGKDSNAACFEVFYIDYGNTEEIKRDDIKALDAKFYEHASGFAVEINLPIGRPSNDTKLKARISEILEEKVVTIKSIEVRRSHLIADVILENNQSVIDLLKAEKLVPG
notes: Tudor (Tud) protein, Drosophila, full length 2515 amino acids; Tud domain 6, amino acids 1299-1484; pET SUMO vector; source: E. coli BL21 (DE3), partially purified (Ni-NTA); not shown: His, N-terminal, kept
B2: Tud domain 3 (amino acids 592-772 of Tudor) (domain or fragment, Drosophila, UniProt P25823 592-772, looked up)
chain: QLENDDAVEIRFIDSPSNFYVQKVANIGKFEQLMDEMFSYYNANQRVPDQLILGAPCIVKCDQEWYRAEILRVDDSVIVRHVDFGYEQNVKRHLIGHIAEKHLEMPRQAIKCCLKGFENSELSEDKITDQFEMLAEESNIRRRTFSVRIFRIEPDGLNVVNLLAKNLNVMKKLYKLSMPFE
notes: Tudor (Tud) protein, Drosophila, full length 2515 amino acids; Tud domain 3, amino acids 592-772; pET SUMO vector; source: E. coli BL21 (DE3), partially purified (Ni-NTA); not shown: His, N-terminal, kept
B3: Tud domain 9 (amino acids 1976-2160 of Tudor) (domain or fragment, Drosophila, UniProt P25823 1976-2160, looked up)
chain: SLAVTTKAIITHVENTSRIYLQFSEKDSLMDIICEKLNGSKLQPKTEKAAVDDMCVVQFADDLEFYRSRILEVLEDDQYKVILIDYGNTTVVDKLYELPQEFTLIKPVAEICSMEPSAIFEKNKALTLTTFDALLDSCKGVVAVEFVNKSASPPVVRLTTKDKRSLKIYEHLQKLVQAELKLIQK
notes: Tudor (Tud) protein, Drosophila, full length 2515 amino acids; Tud domain 9, amino acids 1976-2160; pET SUMO vector; source: E. coli BL21 (DE3), partially purified (Ni-NTA); not shown: His, N-terminal, kept
B4: Tud domain 11 (amino acids 2335-2515 of Tudor) (domain or fragment, Drosophila, UniProt P25823 2335-2515, looked up)
chain: STVTGVQKPLEAELHNCVVVQFDGPMSFYVQMESDVPALEQMTDKLLDAEQDLPAFSDLKEGALCVAQFPEDEVFYRAQIRKVLDDGKCEVHFIDFGNNAVTQQFRQLPEELAKPARYSRHCELDASTISKCDAALLQSFIDTRFSETFQVEILATKGTGTHVVRLFYQSKNISEKLQECQ
notes: Tudor (Tud) protein, Drosophila, full length 2515 amino acids; Tud domain 11, amino acids 2335-2515; pET SUMO vector; source: E. coli BL21 (DE3), partially purified (Ni-NTA); not shown: His, N-terminal, kept
B5: Tud domain 1 (amino acids 1-217 of Tudor) (domain or fragment, Drosophila, UniProt P25823 1-217, looked up)
chain: MNGQARIALPSKVDLYITHVDHVGPYLKVYGHVNRDAASLISERIRNLLPTCFAIEPSWSVERQQALLIPGTFCIFKNINGPAPGDVEYRRIRVVSADLEGQSMRAEIDFVDFGYKRTVDSHDLMFPKQPKLLQNIPLHCFQYIVLGICSEWDQTDLAEVRRLVVNQIVKITVEPTQICDQKFASLRWKDFELNEFLVQQKQIGVSVDKQLMMDHCK
notes: Tudor (Tud) protein, Drosophila, full length 2515 amino acids; Tud domain 1, amino acids 1-217; pET SUMO vector; source: E. coli BL21 (DE3), partially purified (Ni-NTA); not shown: His, N-terminal, kept
B6: Tud domain 4 (amino acids 1002-1192 of Tudor) (domain or fragment, Drosophila, UniProt P25823 1002-1192, looked up)
chain: SLDKPYALQEMKTPSKEAASLSWWLSPFQFYIVPKSVSAKYDNIMRDMREFYRQKQHQPLQLKVGSTVVVRQRKDNAILRATVTACNHMMRKYRVFCVDTGSLITVTSEDIWQLEQRFADPPCMAHRCSFHSVVTNYDPLYIVDRMETFVPVNAKVDCEFVSKEKSNQGSNTSSTCSYTVNIFVNGASLRD
notes: Tudor (Tud) protein, Drosophila, full length 2515 amino acids; Tud domain 4, amino acids 1002-1192; pET SUMO vector; source: E. coli BL21 (DE3), partially purified (Ni-NTA); not shown: His, N-terminal, kept
B7: methylated Aubergine (sDMA-Aub) (natural protein, Drosophila, UniProt O76922 1-866, looked up)
chain: MNLPPNPVIARGRGRGRKPNNVEANRGFAPSLGQKSDPSHSEGNQASGGNGGGGDAQVGPSIEKSSLSAVQMHKSEGDPRGSVRGRRLITDLVYSRPPGMTSKKGVVGTHITVQANYFKVLKRPNWTIYQYRVDFTPDVEATRLRRSFLYEHKGILGGYIFDGTNMFCINQFKAVQDSPYVLELVTKSRAGENIEIKIKAVGSVQSTDAEQFQVLNLILRRAMEGLDLKLVSRYYYDPQAKINLENFRMQLWPGYQTSIRQHENDILLCSEICHKVMRTETLYNILSDAIRDSDDYQSTFKRAVMGMVILTDYNNKTYRIDDVDFQSTPLCKFKTNDGEISYVDYYKKRYNIIIRDLKQPLVMSRPTDKNIRGGNDQAIMIIPELARATGMTDAMRADFRTLRAMSEHTRLNPDRRIERLRMFNKRLKSCKQSVETLKSWNIELDSALVEIPARVLPPEKILFGNQKIFVCDARADWTNEFRTCSMFKNVHINRWYVITPSRNLRETQEFVQMCIRTASSMKMNICNPIYEEIPDDRNGTYSQAIDNAAANDPQIVMVVMRSPNEEKYSCIKKRTCVDRPVPSQVVTLKVIAPRQQKPTGLMSIATKVVIQMNAKLMGAPWQVVIPLHGLMTVGFDVCHSPKNKNKSYGAFVATMDQKESFRYFSTVNEHIKGQELSEQMSVNMACALRSYQEQHRSLPERILFFRDGVGDGQLYQVVNSEVNTLKDRLDEIYKSAGKQEGCRMTFIIVSKRINSRYFTGHRNPVPGTVVDDVITLPERYDFFLVSQAVRIGTVSPTSYNVISDNMGLNADKLQMLSYKMTHMYYNYSGTIRVPAVCHYAHKLAFLVAESINRAPSAGLQNQLYFL
modifications: symmetrically dimethylated arginines (sDMAs), positions not given
notes: Aubergine (Aub), Piwi family protein, Drosophila; full-length; monomer ~100 kDa; Oligomers migrate at 500-700 kDa; also called sDMA-containing Aub; source: Sf9 or TriEx Sf9 cells, baculovirus, co-expressed with Dart5(Csul) and Vls; for SEC also Ni-NTA); not shown: 3xFLAG, N-terminal, kept
B8: unmethylated Aubergine (natural protein, Drosophila, UniProt O76922 1-866, looked up)
chain: MNLPPNPVIARGRGRGRKPNNVEANRGFAPSLGQKSDPSHSEGNQASGGNGGGGDAQVGPSIEKSSLSAVQMHKSEGDPRGSVRGRRLITDLVYSRPPGMTSKKGVVGTHITVQANYFKVLKRPNWTIYQYRVDFTPDVEATRLRRSFLYEHKGILGGYIFDGTNMFCINQFKAVQDSPYVLELVTKSRAGENIEIKIKAVGSVQSTDAEQFQVLNLILRRAMEGLDLKLVSRYYYDPQAKINLENFRMQLWPGYQTSIRQHENDILLCSEICHKVMRTETLYNILSDAIRDSDDYQSTFKRAVMGMVILTDYNNKTYRIDDVDFQSTPLCKFKTNDGEISYVDYYKKRYNIIIRDLKQPLVMSRPTDKNIRGGNDQAIMIIPELARATGMTDAMRADFRTLRAMSEHTRLNPDRRIERLRMFNKRLKSCKQSVETLKSWNIELDSALVEIPARVLPPEKILFGNQKIFVCDARADWTNEFRTCSMFKNVHINRWYVITPSRNLRETQEFVQMCIRTASSMKMNICNPIYEEIPDDRNGTYSQAIDNAAANDPQIVMVVMRSPNEEKYSCIKKRTCVDRPVPSQVVTLKVIAPRQQKPTGLMSIATKVVIQMNAKLMGAPWQVVIPLHGLMTVGFDVCHSPKNKNKSYGAFVATMDQKESFRYFSTVNEHIKGQELSEQMSVNMACALRSYQEQHRSLPERILFFRDGVGDGQLYQVVNSEVNTLKDRLDEIYKSAGKQEGCRMTFIIVSKRINSRYFTGHRNPVPGTVVDDVITLPERYDFFLVSQAVRIGTVSPTSYNVISDNMGLNADKLQMLSYKMTHMYYNYSGTIRVPAVCHYAHKLAFLVAESINRAPSAGLQNQLYFL
notes: Aubergine (Aub), Piwi family protein, Drosophila; full-length; without sDMAs; source: Sf9 cells lacking dart5/vls bacmid, baculovirus; not shown: 3xFLAG, N-terminal, kept

The first data set concerns the target T1, GFP-Aub (functional and methylated, …). In words: pull-down; GFP-Aub from fly ovaries held on anti-GFP agarose beads; partially purified His-SUMO Tud domains added; 50 µl reactions, 4 °C, 30 min, binding buffer PBS + 0.05% IGEPAL CA-630; 4 washes; bound domains detected by anti-His-tag western blot. Conditions: both partners purified. For orientation: In western blotting, separated proteins are transferred to a membrane and probed.
As to B1, the binding result was “binds”.
Still for that read-out and setting: the entry for B2 is “binds”; for B3 it is “binds”.
The same measure, in the same setting: the entry for B4 is “binds”.
On the same count and under the same terms, next, B5: “binds”.
Turning to B6, the binding result is reported as “binds”.

A further data set deals with the molecule itself. In words: native gel or EMSA; blue native PAGE (BN-PAGE), NativePAGE 3-12% Bis-Tris gels, of Aub purified by anti-c-Myc immunoaffinity, several concentrations; western blot with anti-Flag antibody.
Settings: not given
Regarding B7, the binding result is reported as “binds”.
The same measure, in the same setting: next, B8: “binds”.

Source of the values: paper PMC6915754, “Protein components of ribonucleoprotein granules from Drosophila germ cells oligomerize and show distinct spatial organization during germline development” (Scientific Reports, 2019).
